According to paper PMC8760489 (The Journal of Biological Chemistry, 2021):

Target: T1, His6-TviD (Salmonella enterica serovar Typhi, UniProt Q04974 1-831)
T1 sequence: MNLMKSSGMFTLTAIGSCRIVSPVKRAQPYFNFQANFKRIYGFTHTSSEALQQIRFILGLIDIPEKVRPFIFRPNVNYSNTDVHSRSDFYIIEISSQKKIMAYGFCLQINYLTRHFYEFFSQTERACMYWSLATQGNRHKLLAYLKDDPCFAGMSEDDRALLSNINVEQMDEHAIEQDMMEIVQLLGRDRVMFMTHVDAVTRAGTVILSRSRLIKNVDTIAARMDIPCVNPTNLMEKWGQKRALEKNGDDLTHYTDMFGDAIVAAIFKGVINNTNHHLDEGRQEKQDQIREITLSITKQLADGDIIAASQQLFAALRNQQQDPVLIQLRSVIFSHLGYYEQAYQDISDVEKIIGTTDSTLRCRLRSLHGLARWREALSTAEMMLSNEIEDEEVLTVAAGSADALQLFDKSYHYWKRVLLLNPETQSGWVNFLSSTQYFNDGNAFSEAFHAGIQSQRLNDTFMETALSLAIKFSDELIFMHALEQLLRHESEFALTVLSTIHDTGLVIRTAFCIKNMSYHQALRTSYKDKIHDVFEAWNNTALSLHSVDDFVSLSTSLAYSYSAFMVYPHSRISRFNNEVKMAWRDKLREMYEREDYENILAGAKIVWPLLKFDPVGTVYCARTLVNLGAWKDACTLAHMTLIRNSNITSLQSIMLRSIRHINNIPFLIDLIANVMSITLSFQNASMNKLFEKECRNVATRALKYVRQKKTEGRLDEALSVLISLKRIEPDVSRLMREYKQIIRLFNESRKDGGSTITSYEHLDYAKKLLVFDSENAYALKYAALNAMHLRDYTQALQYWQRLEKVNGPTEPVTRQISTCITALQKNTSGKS
Assay: […]

B1: TviE-FLAG (enzyme)
chain: MITQEEKLAALGKTCLTLKQEKKLAQAVALIDSELPTEALTSLAMLKKAEFLHDVNETERAYALYETLIAQNNDEARYEYARRLYNTGLAKDAQLILKKVSNGVQKKYNNYLGKINKICDLLERLEGKAIPVGTNTCIIAMKHAILFYRNRQPRQLPVGSFGRLALCTGSLGSGGAERQISRLAIEIARKYRQKGKIGGLKVEEPVELIIRSLTPELRQDFFLKEVLEEQVEVLEIAKITGNLFDDATIESPELRLLLSHLPPVCKYGIKHLVPHLCERKLDYLSVWQDSACLMIALAALIAGVPRIQLGLRGLPPVVRKRLFKPEYEPLYQALAVVPGVDFMSNNHCVTRHYADWLKLEAKHFQVVYNGVLPPSTEPSSEVPHKIWQQFTQKTQDADTTIGGVFRFVGDKNPFAWIDFAARYLQHHPATRFVLVGDGDLRAEAQKRAEQLGILERILFVGASRDVGYWLQKMNVFILFSRYEGLPNVLIEAQMVGVPVISTPAGGSAECFIEGVSGFILDDAQTVNLDQACRYAEKLVNLWRSRTGICQQTQSFLQERFTVEHMVGTFVKTIASQPR
  binding result: binds
